Assay results as given in patent publication US20190153089A1 (NUMAB INNOVATION, published 2019).

B1: recombinant human TNFβ (Peprotech, Cat. No. 300-01B) (ligand, UniProt P01374 35-205, looked up)
chain: LPGVGLTPSAAQTARQHPKMHLAHSTLKPAAHLIGDPSKQNSLLWRANTDRAFLQDGFSLSNNSLLVPTSGIYFVYSQVVFSGKAYSPKATSSPLYLAHEVQLFSSQYPFHVPLLSSQKMVYPGLQEPWLHSMYHGAAFQLTQGDQLSTHTDGIPHLVLSPSTVFFGAFAL
B2: humanized scFv 17-21-A01-sc01 (CDR graft) (scFv)
scFv: MDIQMTQSPSSLSASVGDRVTITCQASESIGNALAWYQQKPGKAPKLLIYSASTLASGVPSRFSGSGSGTDFTLTISSLQPEDFATYYCQSYYYSSSGSYVAFGGGTKLTVLGGGGGSGGGGSGGGGSGGGGSEVQLVESGGGLVQPGGSLRLSCAASGIDFNKYYFMCWVRQAPGKGLEWIGCINTGSGSTYYATWAKGRFTISRDNSKNTVYLQMNSLRAEDTAVYYCARASGSSSVVYIGVYFSLWGQGTLVTVSS
B3: humanized scFv 17-21-A01-sc03 (CDR graft with disulfide bridge, CDR/DS) (scFv)
scFv: MDIQMTQSPSSLSASVGDRVTITCQASESIGNALAWYQQKPGKAPKLLIYSASTLASGVPSRFSGSGSGTDFTLTISSLQPEDFATYYCQSYYYSSSGSYVAFGCGTKLTVLGGGGGSGGGGSGGGGSGGGGSEVQLVESGGGLVQPGGSLRLSCAASGIDFNKYYFMCWVRQAPGKCLEWIGCINTGSGSTYYATWAKGRFTISRDNSKNTVYLQMNSLRAEDTAVYYCARASGSSSVVYIGVYFSLWGQGTLVTVSS
notes: A disulfide bridge was introduced between residues VL141-VH51; also called 17-21-A01-sc03 (CDR/DS)

Columns and labels:
[1] = target: B3; test: competition ELISA: unlabeled TNFβ or TNFα against biotinylated TNFα on coated scFv
Procedure: (§1) For this purpose, the scFvs were coated on a 96-well Maxisorp ELISA plate at a concentration of […]. […] To control precision of the response, the dose-response curves were analyzed in duplicate.

[2] = target: B2; test: as above
Procedure: as §1

[3] = target: B2; test: competition ELISA: unlabeled TNFβ against biotinylated TNFα on coated scFv; scFv 17-21-A01-sc01
Procedure: as §1

[4] = target: B3; test: competition ELISA: unlabeled TNFβ against biotinylated TNFα on coated scFv; scFv 17-21-A01-sc03
Procedure: as §1

[5] = target: T1, recombinant human TNFα (Peprotech, Cat. No. 300-01) (human, UniProt P01375 77-233, biotinylated in the inhibition and competition ELISAs; unlabelled elsewhere); test: inhibition ELISA, biotinylated TNFα (960 pM) preincubated with scFv, binding to coated TNFRII-Fc
T1 construct: The biotinylated form is kept under this id; also called tumor necrosis factor alpha; TNFαtrimer
Description: (§2) For the first inhibition ELISA, the extracellular domain of TNFRI fused to the Fc region of human IgG (R&D Systems, Cat. No. 372-RI) was coated on a 96-well Maxisorp ELISA at a concentration of […]. For the second inhibition ELISA, the extracellular domain of TNFRII fused to the Fc region of human IgG (R&D Systems, Cat. No. 726-R2) was coated at a concentration of […]. All subsequent steps were identical for both assays.

[6] = target: T1, recombinant human TNFα (Peprotech, Cat. …); test: inhibition ELISA, biotinylated TNFα (960 pM) preincubated with scFv, binding to coated TNFRI-Fc
Description: as §2

[7] = target: T2, recombinant Cynomolgus monkey TNFα (Sino Biological, Cat. No. 90018-CNAE) (Cynomolgus monkey (Macaca fascicularis), UniProt P79337 77-233); test: SPR (MASS-1), TNFα immobilized, scFv 45-1.4 nM
T2 construct: also called Cyno TNFα; Cynomolgus TNFα
Procedure: (§3) In a second step, for the best performing scFvs, Single Injection Cycle Kinetics (SiCK) were measured from a single injection cycle by simultaneously injecting six analyte samples at different concentrations into each of the eight parallel channels in the MASS-1 system. […] The apparent dissociation (kd) and association (kₐ) rate constants and the apparent dissociation equilibrium constant (KD) were calculated with the MASS-1 analysis software (Analyzer, Sierra Sensors) using one-to-one Langmuir binding model and quality of the fits was monitored based on Chi², which is a measure for the quality of the curve fitting. The smaller the value for the Chi² the more accurate is the fitting to the one-to-one Langmuir binding model. For affinity screenings, results were deemed valid if the Chi² was below 10 for the concentration analyzed. In cases where several scFv concentrations were analyzed, results were deemed valid if the average Chi² over all the concentrations tested was below 10.

[8] = target: T1, recombinant human TNFα (Peprotech, Cat. …); test: SPR (MASS-1), TNFα immobilized, scFv 45-1.4 nM
Procedure: as §3

[9] = target: T3, Rhesus monkey TNFα (R&D Systems, Cat. No. 1070-RM-025/CF) (Rhesus monkey (Macaca mulatta), UniProt P48094 77-233); test: SPR (MASS-1), TNFα immobilized, scFv 45-1.4 nM
T3 construct: also called Rhesus TNFα; Macaca mulatta TNFα
Procedure: as §3

[10] = target: T2, recombinant Cynomolgus monkey TNFα …; test: SPR
Procedure: as §3

[11] = target: T3, Rhesus monkey TNFα (R&D Systems, Cat. …); test: SPR
Procedure: as §3

[12] = target: B1; test: competition ELISA: unlabeled TNFβ against biotinylated TNFα on coated scFv
Procedure: as §1

[13] = target: T2, recombinant Cynomolgus monkey TNFα …; test: cell-based or functional assay
[14] = target: T1, recombinant human TNFα (Peprotech, Cat. …); test: cell-based or functional assay
[15] = target: T3, Rhesus monkey TNFα (R&D Systems, Cat. …); test: cell-based or functional assay

T2 sequence (P79337 77-233 limits assumed): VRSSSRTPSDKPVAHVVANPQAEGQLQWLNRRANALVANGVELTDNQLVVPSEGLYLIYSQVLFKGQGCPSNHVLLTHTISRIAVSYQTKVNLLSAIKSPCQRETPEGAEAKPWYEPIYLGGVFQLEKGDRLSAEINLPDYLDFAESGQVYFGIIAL
T3 sequence (P48094 77-233 limits assumed): as the sequence (P79337 77-233 limits assumed) above, with V37L counted along it
T1 sequence (P01375 77-233 limits assumed): as the sequence (P79337 77-233 limits assumed) above, with V37L, T44R, N72T, L138R counted along it

| Binder | IC50 [5] [µg/mL] | rel. IC50 (IC50 infliximab / IC50 scFv, ng/mL) [5] [fold] | rel. IC90 (IC90 infliximab / IC90 scFv, ng/mL) [5] [fold] | IC50 [6] [µg/mL] | rel. IC50 (IC50 infliximab / IC50 scFv, ng/mL) [6] [fold] | rel. IC90 (IC90 infliximab / IC90 scFv, ng/mL) [6] [fold] | Kd [8] [nM] | koff [8] [s⁻¹] | kon [8] [M⁻¹ s⁻¹] | binding result [12] | Species-specificity IC50, L929 assay with Cynomolgus TNFα [13] [µg/mL] | Potency, rel. IC50 in L929 assay (IC50 infliximab / IC50 scFv, ng/mL) [14] [fold] | Potency, rel. IC90 in L929 assay (IC90 infliximab / IC90 scFv, ng/mL) [14] [fold] | Species-specificity IC50, L929 assay with human TNFα [14] [µg/mL] | Species-specificity IC50, L929 assay with Rhesus TNFα [15] [µg/mL] | also measured |
| --- | --- | --- | --- | --- | --- | --- | --- | --- | --- | --- | --- | --- | --- | --- | --- | --- |
| B1 |  |  |  |  |  |  |  |  |  |  |  |  |  |  |  | Target selectivity, rel. IC50 of TNFβ vs TNFα [1]: > 10000 fold; Target selectivity, rel. IC50 of TNFβ vs TNFα [2]: > 10000 fold; IC50 [3]: > 1250 µg/mL; IC50 [4]: > 1250 µg/mL |
| B2 | 0.0541 | 2.2 | 0.8 | 0.0316 | 2.9 | 2 | 0.21 | 0.00014 | 660000 | no binding (tested: 1250 µg/mL) | 0.193 | 9.2 | 12.2 | 0.0014 | 0.111 | Kd [7]: 2.4 nM; koff [7]: 0.0016 s⁻¹; kon [7]: 650000 M⁻¹ s⁻¹; Kd [9]: 2.5 nM; koff [9]: 0.0019 s⁻¹; kon [9]: 760000 M⁻¹ s⁻¹; fold difference in affinity against human TNFα [10]: ~5 fold; fold difference in affinity against human TNFα [11]: ~5 fold |
| B3 | 0.0467 | 2.6 | 0.8 | 0.0502 | 1.8 | 1.8 | 0.27 | 0.00011 | 400000 | no binding (tested: 1250 µg/mL) | 0.0506 | 6.5 | 6.4 | 0.0012 | 0.0542 |  |
